# ± gives the standard error. Variants at the floor of the assay were thinned out.
# B1: glmS ribozyme (parent)
# chain: AUAAAAGCGCCAGAACUACAGAAAUGUAGUUGACGAGGAGGAGGUUUAUCGAAUUUUCGGCGGAUGCCUCCAAA
# Variants of: B1
# Test: self-cleavage kobs at 2500 uM GlcN6P; higher = faster cleavage; RNA array
# Conditions: with glucosamine-6-phosphate
# Summary of the method: (§1)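 Weighted Michaelis–Menten fits across concentrations supplied kcat and KM, based on kobs from one- or two-exponential decay fits to normalised per-tile medians. The data came from barcoded ribozyme variants transcribed in situ by E. coli RNA polymerase on sequenced MiSeq chips and tracked at 37 °C by a hybridised Cy3 probe. Glucosamine-6-phosphate (40 μM to 10 mM) in HEPES/KCl/Mg(OAc)2 buffer was flowed in.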
row,Variant,self-cleavage kobs at 2500 uM GlcN6P
1,C10A C50U C68U,6.13e-05 ± 2.7e-05 s⁻¹
2,A12C A39G U49C,< 1e-05 s⁻¹
3,A12G G32U C34U A53U,< 1e-05 s⁻¹
4,C8G G9A A14U U31G A39C U47A A64G C70U,< 1e-05 s⁻¹
5,A12U A15U U47C,0.000776 ± 0.00023 s⁻¹
6,C11A C16U U54G G59A,0.000138 ± 3e-05 s⁻¹
7,C10A G29C U55A C70G,9.79e-05 ± 2.6e-05 s⁻¹
8,G13A A36G C58G C68G,0.000157 ± 5.4e-05 s⁻¹
9,G9A A39G A52C,< 1e-05 s⁻¹
10,G13A A15U C58G U65G C70G,7.13e-05 ± 3.5e-05 s⁻¹
11,A12G C16U U69G,6.28e-05 ± 2.8e-05 s⁻¹
12,C11A A14G G29U,5.93e-05 ± 2.7e-05 s⁻¹
13,A12U A14G G32U,0.000861 ± 0.00015 s⁻¹
14,C11A U54A U55G,0.000135 ± 4.1e-05 s⁻¹
15,C8A G41A G44U,< 1e-05 s⁻¹
16,A12U U30G U49C,< 1e-05 s⁻¹
17,C11G G26U G43C,< 1e-05 s⁻¹
18,C11A A12U G32U C50U U56A C58A,< 1e-05 s⁻¹
19,C10A U47A C70A,0.000334 ± 0.00015 s⁻¹
20,G9A U30A,< 1e-05 s⁻¹
21,C10U G35U G43C,< 1e-05 s⁻¹
22,C11G A52U C68U,< 1e-05 s⁻¹
23,G13A U47A G66A,0.000103 ± 2.2e-05 s⁻¹
24,A12G G40U C67U,< 1e-05 s⁻¹
25,C8U G9U A15U G44U,< 1e-05 s⁻¹
26,C11G G13A G41A A52U A53C G63C C68G,< 1e-05 s⁻¹

row,Variant,self-cleavage kobs at 2500 uM GlcN6P
1,C11U A12G A15G,0.000326 ± 8.5e-05 s⁻¹
2,C8U A15U U31C A36G U46A A52U C58A C67U C70U,< 1e-05 s⁻¹
3,A12G A15U C71G,2.52e-05 ± 1.1e-05 s⁻¹
4,G9U G13U A14G G37A G60C C71U,< 1e-05 s⁻¹
5,A12C A39G U47C,0.00269 ± 0.00067 s⁻¹
6,G9U U30A G38A G40C U56A C70A,< 1e-05 s⁻¹
7,C10U A14C A15U G41A,< 1e-05 s⁻¹
8,C11U C16U A53C C68A C70G,< 1e-05 s⁻¹
9,G13C C16U C71U,7.64e-05 ± 1.7e-05 s⁻¹
10,A12G A53U U55G,0.000166 ± 2.9e-05 s⁻¹
11,G9C G40U C67U,< 1e-05 s⁻¹
12,C10G U30G A39U G44C A48C,< 1e-05 s⁻¹
13,G9U C50U C68U,< 1e-05 s⁻¹
14,C11A A33G G35U A52G,< 1e-05 s⁻¹
15,A12G G35U C67A,< 1e-05 s⁻¹
16,A12C A15U G62A,< 1e-05 s⁻¹
17,C8U G13U A39U A42G,< 1e-05 s⁻¹
18,A12G G37U A53C G62A A64U C68G,< 1e-05 s⁻¹
19,A12C U56A C58G,0.00043 ± 8.1e-05 s⁻¹
20,C10U C11G U57A,< 1e-05 s⁻¹
21,G9C U46A C71U,< 1e-05 s⁻¹
22,C8G G21U U55G G60U C67G,< 1e-05 s⁻¹
23,C10A G66A C68A,5.96e-05 ± 2.6e-05 s⁻¹
24,C8U C34U G37A U54C,< 1e-05 s⁻¹
25,C10G A42C U65G,< 1e-05 s⁻¹
26,A12C U46C C70A,3.42e-05 ± 1.2e-05 s⁻¹

row,Variant,self-cleavage kobs at 2500 uM GlcN6P
1,C8A U31C A42U U65G,< 1e-05 s⁻¹
2,C10U C11A C70A,7.8e-05 ± 2.7e-05 s⁻¹
3,G9C C34U A53U,< 1e-05 s⁻¹
4,A12C C16U G40A,0.00176 ± 0.00038 s⁻¹
5,A12G C61U C67U C68G,5.12e-05 ± 2.3e-05 s⁻¹
6,C10U G13U A52U,< 1e-05 s⁻¹
7,G13A U30A U45A U57G G60U U65C C68G,< 1e-05 s⁻¹
8,C11G U30C G37U,< 1e-05 s⁻¹
9,A12U U47G U65G,0.00179 ± 0.0004 s⁻¹
10,G13A U54G C68A,7.33e-05 ± 2.7e-05 s⁻¹
11,G9C G13U A48G,< 1e-05 s⁻¹
12,A12G A15G G44A U54A C61U,< 1e-05 s⁻¹
13,A12G U54A C68G,5.86e-05 ± 1e-05 s⁻¹
14,C8G G9C G41A G60C C61A C68G,< 1e-05 s⁻¹
15,A12G G62A U69A C70A,0.000135 ± 5.1e-05 s⁻¹
16,C10A A12C G51U,< 1e-05 s⁻¹
17,A12C U55A C58A,8.77e-05 ± 1.8e-05 s⁻¹
18,G9C A39U U45C C58U,< 1e-05 s⁻¹
19,C11U A36G G40U G44A C61A C71U,< 1e-05 s⁻¹
20,C10G U47C A53U U54A C70U,< 1e-05 s⁻¹
21,G9A C34A U49G,< 1e-05 s⁻¹
22,G9C A33C A48G U54G,< 1e-05 s⁻¹
23,A12U G43U C50U G59A,< 1e-05 s⁻¹
24,A12C U46A C71A,6.86e-05 ± 2.4e-05 s⁻¹
25,A12G A15U G35A,< 1e-05 s⁻¹
26,G9A A12C G59C,< 1e-05 s⁻¹

# Variants of: B1
# Test: self-cleavage kobs at 10000 uM GlcN6P; higher = faster cleavage; RNA array
# Conditions: with glucosamine-6-phosphate
# Summary of the method: as §1
row,Variant,self-cleavage kobs at 10000 uM GlcN6P
1,A12U A14G G32U,0.00275 ± 0.00043 s⁻¹
2,C11A U54A U55G,0.000124 ± 1.8e-05 s⁻¹
3,G13A U47A G66A,0.000143 ± 2.8e-05 s⁻¹
4,C11U A12G A15G,0.000749 ± 0.00017 s⁻¹
5,G9U U30A G38A G40C U56A C70A,< 1e-05 s⁻¹
6,C11U C16U A53C C68A C70G,< 1e-05 s⁻¹
7,G13C C16U C71U,0.000169 ± 5.1e-05 s⁻¹
8,C11A A33G G35U A52G,< 1e-05 s⁻¹
9,C10U C11G U57A,< 1e-05 s⁻¹
10,C8A U31C A42U U65G,< 1e-05 s⁻¹
